Test results published in patent publication US20220041738A1 (SAITAMA MEDICAL UNIVERSITY, published 2022).

Legend:
Assay in all cases: immunofluorescence on transfected, formalin-fixed C2C12 cells, IgG at 10 µg/mL, Alexa 594 anti-rat IgG
[1] = target: T1, human ALK2-R375P on cells (human, UniProt Q04771 21-509)
T1 sequence: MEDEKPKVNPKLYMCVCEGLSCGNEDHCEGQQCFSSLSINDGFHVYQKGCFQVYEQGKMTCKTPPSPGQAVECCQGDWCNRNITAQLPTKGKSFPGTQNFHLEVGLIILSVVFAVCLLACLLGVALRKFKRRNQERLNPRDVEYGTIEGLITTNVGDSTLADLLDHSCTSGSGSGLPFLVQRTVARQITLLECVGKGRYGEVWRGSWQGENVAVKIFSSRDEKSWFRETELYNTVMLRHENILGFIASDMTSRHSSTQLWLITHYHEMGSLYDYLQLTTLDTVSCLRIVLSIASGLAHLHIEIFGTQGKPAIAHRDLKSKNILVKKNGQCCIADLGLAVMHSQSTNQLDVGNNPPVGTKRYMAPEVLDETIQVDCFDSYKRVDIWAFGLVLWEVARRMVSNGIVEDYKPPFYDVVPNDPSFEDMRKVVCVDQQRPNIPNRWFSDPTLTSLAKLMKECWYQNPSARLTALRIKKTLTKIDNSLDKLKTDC
Description: (§1) Mouse C2C12 cells were seeded into a 96-well plate (Greiner Bio-One) at 0.5×10³ cells/well, and cultured in 15% FBS-containing DMEM medium overnight under the conditions of 5% CO₂ at 37° C. On the following day, the C2C12 cells were transfected with each of a wild-type human ALK2 cDNA integrated into pcDEF3; pcDEF3/human ALK2-L196P, pcDEF3/human ALK2-P197_F198delinsL, pcDEF3/human ALK2-R202I, pcDEF3/human ALK2-R206H, pcDEF3/human ALK2-Q207E, pcDEF3/human ALK2-R258S, pcDEF3/human ALK2-G325A, pcDEF3/human ALK2-G328E, pcDEF3/human ALK2-G328R, pcDEF3/human ALK2-G328W, pcDEF3/human ALK2-G356D, and pcDEF3/human ALK2-R375P, which are variants identified in FOP; and pcDEF3 as a control, using Lipofectamine 2000 (Invitrogen), and further cultured overnight.
(§2) The C2C12 cells were fixed with 10% neutral formalin (Nacalai Tesque, Japan) for 20 minutes at room temperature, and then blocked with 10% goat normal serum for 30 minutes. After the blocking agent was removed, purified IgG diluted to 10 μg/mL with the blocking agent was added, and the cells were left for 1 hour at room temperature. After the cells were washed with PBS three times, Goat Alexa 594-conjugated anti-rat IgG (Invitrogen) diluted to 1:1000 with the blocking agent was added, and the cells were left for 1 hour at room temperature. After the cells were washed with PBS three times, the cells were fixed with 10% neutral formalin for 15 minutes at room temperature, and nuclear-stained with DAPI (LifeTechnologies). Fluorescent signals were analyzed with a fluorescence microscope BZ-9000 (Keyence).

[2] = target: T2, human ALK2-R206H on cells (human, UniProt Q04771 21-509)
T2 sequence: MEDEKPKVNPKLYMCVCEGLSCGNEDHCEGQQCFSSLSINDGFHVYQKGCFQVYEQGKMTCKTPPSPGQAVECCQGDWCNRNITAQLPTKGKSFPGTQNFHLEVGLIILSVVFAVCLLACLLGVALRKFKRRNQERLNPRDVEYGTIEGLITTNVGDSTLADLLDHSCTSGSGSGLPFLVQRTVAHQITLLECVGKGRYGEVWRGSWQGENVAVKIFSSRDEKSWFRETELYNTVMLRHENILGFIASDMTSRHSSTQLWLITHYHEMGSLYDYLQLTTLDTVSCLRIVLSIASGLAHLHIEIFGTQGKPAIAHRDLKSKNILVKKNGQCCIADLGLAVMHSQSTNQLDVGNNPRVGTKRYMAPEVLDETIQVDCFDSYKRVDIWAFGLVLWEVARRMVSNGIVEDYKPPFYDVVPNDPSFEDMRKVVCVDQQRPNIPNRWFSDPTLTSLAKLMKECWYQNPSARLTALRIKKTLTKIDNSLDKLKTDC
Description: as §1, §2

[3] = target: T3, human ALK2-L196P on cells (human, UniProt Q04771 21-509)
T3 sequence: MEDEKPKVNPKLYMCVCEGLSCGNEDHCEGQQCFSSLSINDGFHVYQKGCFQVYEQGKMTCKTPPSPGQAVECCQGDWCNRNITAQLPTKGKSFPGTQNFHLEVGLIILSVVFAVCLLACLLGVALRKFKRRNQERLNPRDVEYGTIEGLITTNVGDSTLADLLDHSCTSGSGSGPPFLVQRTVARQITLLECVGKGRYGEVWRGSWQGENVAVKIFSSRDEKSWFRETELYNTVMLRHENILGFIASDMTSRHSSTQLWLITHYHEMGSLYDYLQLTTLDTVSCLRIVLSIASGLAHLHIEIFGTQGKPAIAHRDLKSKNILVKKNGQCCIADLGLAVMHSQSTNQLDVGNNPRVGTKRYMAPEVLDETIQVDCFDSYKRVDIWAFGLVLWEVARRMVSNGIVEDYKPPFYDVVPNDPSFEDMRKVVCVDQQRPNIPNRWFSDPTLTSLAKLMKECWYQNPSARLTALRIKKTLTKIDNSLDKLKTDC
Description: as §1, §2

[4] = target: T4, wild-type human ALK2 on cells (cDNA in pcDEF3) (human, UniProt Q04771 21-509)
T4 construct: also called wild-type ALK2; ALK2 (WT)
T4 sequence: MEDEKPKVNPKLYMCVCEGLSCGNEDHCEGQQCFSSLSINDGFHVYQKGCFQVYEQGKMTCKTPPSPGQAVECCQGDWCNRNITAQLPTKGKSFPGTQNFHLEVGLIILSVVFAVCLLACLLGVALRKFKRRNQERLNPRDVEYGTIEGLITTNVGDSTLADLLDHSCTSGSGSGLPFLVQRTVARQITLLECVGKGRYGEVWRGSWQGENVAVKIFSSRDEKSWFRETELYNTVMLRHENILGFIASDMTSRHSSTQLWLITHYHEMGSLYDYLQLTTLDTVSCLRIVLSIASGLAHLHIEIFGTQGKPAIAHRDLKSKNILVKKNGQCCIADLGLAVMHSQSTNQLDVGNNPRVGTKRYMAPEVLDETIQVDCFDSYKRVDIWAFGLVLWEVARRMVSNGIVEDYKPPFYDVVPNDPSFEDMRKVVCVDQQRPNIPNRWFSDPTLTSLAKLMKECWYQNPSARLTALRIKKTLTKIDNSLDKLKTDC
Description: as §1, §2

Measured: binding result

B1: rat anti-ALK2 monoclonal antibody A2-27D (antibody, V domains shown)
VH: EVQLVESGGGLVQPGRSLKLSCLASGSTFSNYGMKWIRQAPGKGLEWVASISRSSTYIYYADTVKGRFTISRDNARNTLYLQMTSLRSEDTALYYCAAAISTPFYWYFDFWGPGTVVTVSS
VL: EIVLTQSPTTMAASPGEKVTLNCLASSSVSYMTWYQQKSGASPKLWIYGTSNLASGVPNRFSGSGSGTSYSLAISSMEAEDVATYYCLHLTSYPPYTFGAGTKLELKR
notes: Rat monoclonal IgG from a hybridoma; also called 27D11
binds: [1] | [2] | [3] | [4]

B2: rat anti-ALK2 monoclonal antibody A2-25C (antibody, V domains shown)
VH: EVQLVESGGGLVQPGGSLKLSCAASGFTFSYYAMSWVCQAPTKGLEWVASISRGGDNTYYRDTVKGRFTTSRDNAKNTLYLQMDSLRSEDTATYYCARLNYNNYFDYWGQGVMVTVSS
VL: DIQMTQSPASLSASLEEIVTITCQASQDIGNWLSWYQQKPGKSPQLLIYGATSLADGVPSRFSGSRSGTQYSLKISRLRVEDIGIYYCLQAYSAPFTFGSGTKLEIKR
notes: Rat monoclonal IgG from a hybridoma; also called 25C11
binds: [1] | [2] | [3] | [4]
